B1: Growth/differentiation factor 11 (Mus musculus), Q9Z1W4 (parent)
chain: MVLAAPLLLGFLLLALELRPRGEAAEGPAAAAAAAAAAAGVGGERSSRPAPSAPPEPDGCPVCVWRQHSRELRLESIKSQILSKLRLKEAPNISREVVKQLLPKAPPLQQILDLHDFQGDALQPEDFLEEDEYHATTETVISMAQETDPAVQTDGSPLCCHFHFSPKVMFTKVLKAQLWVYLRPVPRPATVYLQILRLKPLTGEGTAGGGGGGRRHIRIRSLKIELHSRSGHWQSIDFKQVLHSWFRQPQSNWGIEINAFDPSGTDLAVTSLGPGAEGLHPFMELRVLENTKRSRRNLGLDCDEHSSESRCCRYPLTVDFEAFGWDWIIAPKRYKANYCSGQCEYMFMQKYPHTHLVQQANPRGSAGPCCTPTKMSPINMLYFNDKQQIIYGKIPGMVVDRCGCS
B2: Growth/differentiation factor 11 (Mus musculus), Q9Z1W4 (parent)
chain: B1 chain
partner: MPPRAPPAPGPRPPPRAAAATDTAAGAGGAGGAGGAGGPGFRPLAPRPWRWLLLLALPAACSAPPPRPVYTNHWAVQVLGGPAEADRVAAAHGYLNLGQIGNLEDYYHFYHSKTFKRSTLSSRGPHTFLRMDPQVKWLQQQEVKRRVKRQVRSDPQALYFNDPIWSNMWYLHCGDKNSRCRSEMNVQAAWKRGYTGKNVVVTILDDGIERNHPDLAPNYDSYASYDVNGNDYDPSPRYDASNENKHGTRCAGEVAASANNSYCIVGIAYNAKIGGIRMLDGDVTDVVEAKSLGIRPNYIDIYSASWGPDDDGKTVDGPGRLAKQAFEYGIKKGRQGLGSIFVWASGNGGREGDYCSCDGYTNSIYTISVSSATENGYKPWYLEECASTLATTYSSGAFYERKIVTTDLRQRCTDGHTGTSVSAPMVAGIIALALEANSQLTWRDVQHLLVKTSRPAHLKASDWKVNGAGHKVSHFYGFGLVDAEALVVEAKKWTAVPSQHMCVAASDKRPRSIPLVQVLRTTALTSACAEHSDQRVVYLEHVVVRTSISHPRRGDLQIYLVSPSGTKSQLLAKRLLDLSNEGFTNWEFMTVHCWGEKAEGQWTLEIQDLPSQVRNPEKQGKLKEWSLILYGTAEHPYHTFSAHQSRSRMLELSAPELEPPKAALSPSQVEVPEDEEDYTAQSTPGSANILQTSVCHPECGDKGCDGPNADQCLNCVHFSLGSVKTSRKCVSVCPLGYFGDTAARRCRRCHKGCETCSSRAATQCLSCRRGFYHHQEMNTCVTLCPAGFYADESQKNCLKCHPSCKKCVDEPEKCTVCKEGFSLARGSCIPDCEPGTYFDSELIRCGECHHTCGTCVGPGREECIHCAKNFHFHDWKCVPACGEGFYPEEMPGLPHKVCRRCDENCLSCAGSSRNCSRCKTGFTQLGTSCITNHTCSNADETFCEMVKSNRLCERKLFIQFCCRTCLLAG
B3: Growth/differentiation factor 11 (Mus musculus), Q9Z1W4 (parent)
chain: B1 chain
partner: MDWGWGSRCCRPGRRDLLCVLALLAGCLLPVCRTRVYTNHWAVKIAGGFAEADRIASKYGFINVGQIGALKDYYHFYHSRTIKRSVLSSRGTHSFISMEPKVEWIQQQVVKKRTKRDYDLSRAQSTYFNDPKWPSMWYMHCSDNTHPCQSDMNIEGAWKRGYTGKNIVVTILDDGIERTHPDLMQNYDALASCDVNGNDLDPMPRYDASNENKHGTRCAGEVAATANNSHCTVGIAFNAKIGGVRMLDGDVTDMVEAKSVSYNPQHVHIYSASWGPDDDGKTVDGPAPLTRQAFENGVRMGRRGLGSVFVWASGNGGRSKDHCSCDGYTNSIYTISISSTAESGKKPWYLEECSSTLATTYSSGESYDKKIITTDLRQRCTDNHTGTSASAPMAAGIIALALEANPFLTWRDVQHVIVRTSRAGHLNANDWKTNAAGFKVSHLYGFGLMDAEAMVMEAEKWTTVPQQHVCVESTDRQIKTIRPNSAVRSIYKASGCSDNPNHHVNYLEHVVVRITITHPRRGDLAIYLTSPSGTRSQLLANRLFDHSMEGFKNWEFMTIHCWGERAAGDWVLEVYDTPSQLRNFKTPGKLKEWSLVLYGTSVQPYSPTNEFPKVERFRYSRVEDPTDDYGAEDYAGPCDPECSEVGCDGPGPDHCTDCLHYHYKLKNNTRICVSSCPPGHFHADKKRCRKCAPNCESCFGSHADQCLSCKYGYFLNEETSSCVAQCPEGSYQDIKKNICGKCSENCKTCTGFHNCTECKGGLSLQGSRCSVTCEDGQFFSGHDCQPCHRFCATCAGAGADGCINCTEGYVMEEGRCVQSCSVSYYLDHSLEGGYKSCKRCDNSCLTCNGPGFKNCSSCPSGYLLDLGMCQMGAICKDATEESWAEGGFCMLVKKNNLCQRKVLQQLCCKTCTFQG
B4: Growth/differentiation factor 11 (Mus musculus), Q9Z1W4 (parent)
chain: B1 chain
partner: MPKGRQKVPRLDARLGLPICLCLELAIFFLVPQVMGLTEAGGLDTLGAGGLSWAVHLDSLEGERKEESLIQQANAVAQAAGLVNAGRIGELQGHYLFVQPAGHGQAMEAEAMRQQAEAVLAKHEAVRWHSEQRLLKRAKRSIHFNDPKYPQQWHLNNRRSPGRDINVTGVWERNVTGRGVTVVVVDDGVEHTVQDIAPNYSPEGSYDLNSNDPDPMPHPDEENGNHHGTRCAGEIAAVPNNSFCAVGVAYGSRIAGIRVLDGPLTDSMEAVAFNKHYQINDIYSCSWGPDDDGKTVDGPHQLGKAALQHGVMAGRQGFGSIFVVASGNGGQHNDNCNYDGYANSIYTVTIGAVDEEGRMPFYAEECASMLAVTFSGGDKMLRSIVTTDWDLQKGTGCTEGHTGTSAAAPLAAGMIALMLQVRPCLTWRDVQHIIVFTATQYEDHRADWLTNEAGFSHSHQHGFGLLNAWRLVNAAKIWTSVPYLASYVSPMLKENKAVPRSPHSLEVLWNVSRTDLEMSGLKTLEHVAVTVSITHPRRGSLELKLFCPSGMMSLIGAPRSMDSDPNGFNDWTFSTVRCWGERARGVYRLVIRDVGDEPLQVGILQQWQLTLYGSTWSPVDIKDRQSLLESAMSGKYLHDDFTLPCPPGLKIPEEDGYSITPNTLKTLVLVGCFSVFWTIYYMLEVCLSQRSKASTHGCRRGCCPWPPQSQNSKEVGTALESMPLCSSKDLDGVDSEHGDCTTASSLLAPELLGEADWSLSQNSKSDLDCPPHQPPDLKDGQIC

The first assay covers variants of B1. To be noted: with furin_human FURIN.
Consider MVLAAPLLLGFLLLALELRPRGEAAEGPAAAAAAAAAAAGVGGERSSRPAPSAPPEPDGCPVCVWRQHSRELRLESIKSQILSKLRLKEAPNISREVVKQLLPKAPPLQQILDLHDFQGDALQPEDFLEEDEYHATTETVISMAQETDPAVQTDGSPLCCHFHFSPKVMFTKVLKAQLWVYLRPVPRPATVYLQILRLKPLTGEGTAGGGGGGRRHIRIRSLKIELHSRSGHWQSIDFKQVLHSWFRQPQSNWGIEINAFDPSGTDLAVTSLGPGAEGLHPFMELRVLENTKRSRRDLGLDCDEHSSESRCCRYPLTVDFEAFGWDWIIAPKRYKANYCSGQCEYMFMQKYPHTHLVQQANPRGSAGPCCTPTKMSPINMLYFNDKQQIIYGKIPGMVVDRCGCS [N297D], for which the “effect of a mutation on the interaction” value is listed as “increasing interaction”.

In another assay the parent is B2. The conditions noted are these: with PCSK6, P29122-1.
MVLAAPLLLGFLLLALELRPRGEAAEGPAAAAAAAAAAAGVGGERSSRPAPSAPPEPDGCPVCVWRQHSRELRLESIKSQILSKLRLKEAPNISREVVKQLLPKAPPLQQILDLHDFQGDALQPEDFLEEDEYHATTETVISMAQETDPAVQTDGSPLCCHFHFSPKVMFTKVLKAQLWVYLRPVPRPATVYLQILRLKPLTGEGTAGGGGGGRRHIRIRSLKIELHSRSGHWQSIDFKQVLHSWFRQPQSNWGIEINAFDPSGTDLAVTSLGPGAEGLHPFMELRVLENTKRSRRDLGLDCDEHSSESRCCRYPLTVDFEAFGWDWIIAPKRYKANYCSGQCEYMFMQKYPHTHLVQQANPRGSAGPCCTPTKMSPINMLYFNDKQQIIYGKIPGMVVDRCGCS [N297D]: the “effect of a mutation on the interaction” value is given as “increasing interaction”.

A further assay covers variants of B3. The conditions noted are these: with Pcsk5, P41413-2.
As to MVLAAPLLLGFLLLALELRPRGEAAEGPAAAAAAAAAAAGVGGERSSRPAPSAPPEPDGCPVCVWRQHSRELRLESIKSQILSKLRLKEAPNISREVVKQLLPKAPPLQQILDLHDFQGDALQPEDFLEEDEYHATTETVISMAQETDPAVQTDGSPLCCHFHFSPKVMFTKVLKAQLWVYLRPVPRPATVYLQILRLKPLTGEGTAGGGGGGRRHIRIRSLKIELHSRSGHWQSIDFKQVLHSWFRQPQSNWGIEINAFDPSGTDLAVTSLGPGAEGLHPFMELRVLENTKRSRRDLGLDCDEHSSESRCCRYPLTVDFEAFGWDWIIAPKRYKANYCSGQCEYMFMQKYPHTHLVQQANPRGSAGPCCTPTKMSPINMLYFNDKQQIIYGKIPGMVVDRCGCS [N297D], the “effect of a mutation on the interaction” value is given as “increasing interaction”.

In a further assay the parent is B4. To be noted: with pcsk7_rat Pcsk7, Q62849.
Consider MVLAAPLLLGFLLLALELRPRGEAAEGPAAAAAAAAAAAGVGGERSSRPAPSAPPEPDGCPVCVWRQHSRELRLESIKSQILSKLRLKEAPNISREVVKQLLPKAPPLQQILDLHDFQGDALQPEDFLEEDEYHATTETVISMAQETDPAVQTDGSPLCCHFHFSPKVMFTKVLKAQLWVYLRPVPRPATVYLQILRLKPLTGEGTAGGGGGGRRHIRIRSLKIELHSRSGHWQSIDFKQVLHSWFRQPQSNWGIEINAFDPSGTDLAVTSLGPGAEGLHPFMELRVLENTKRSRRDLGLDCDEHSSESRCCRYPLTVDFEAFGWDWIIAPKRYKANYCSGQCEYMFMQKYPHTHLVQQANPRGSAGPCCTPTKMSPINMLYFNDKQQIIYGKIPGMVVDRCGCS [N297D], for which the “effect of a mutation on the interaction” value is on record as “increasing interaction”.

The record behind these values is IntAct's records for PubMed 18378898.
